In publication doi:10.1101/713677:

Molecular target: zip (positive control of the BACTH system)
Experiment: two-hybrid

zip (positive control of the BACTH system) (domain or fragment)
β-galactosidase activity: 63300 Miller units
